Experimental findings from patent US20250313626A1 (HARBOUR BIOMED SHANGHAI, published 2025) are described below.

Where two headings read alike, the source gives them in different places.

Test [1] addresses T1, human CD200R1 isoform a on CHOK1 cells (CHOK1/hCD200R1a) (human, UniProt Q8TD46 25-348).
T1 construct: also called CHOK1/CD200R1a
T1 sequence: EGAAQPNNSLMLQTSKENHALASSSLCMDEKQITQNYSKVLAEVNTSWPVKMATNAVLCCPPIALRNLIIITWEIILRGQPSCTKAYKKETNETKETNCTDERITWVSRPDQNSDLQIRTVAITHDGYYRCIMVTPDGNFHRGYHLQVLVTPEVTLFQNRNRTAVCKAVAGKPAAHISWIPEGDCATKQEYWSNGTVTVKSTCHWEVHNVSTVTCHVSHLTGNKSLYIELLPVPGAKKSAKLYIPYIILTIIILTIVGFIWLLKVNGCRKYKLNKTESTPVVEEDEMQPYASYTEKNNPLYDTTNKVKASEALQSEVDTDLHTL
Kind of test: flow cytometry on CHOK1/hCD200R1a cells. The method, then: (§1) This example is intended to investigate the in vitro binding activity of human anti-CD200R1 monoclonal antibodies to human/Cynomolgus macaques CD200R1a expressed on the surface of cells. The anti-CD200R1 antibodies were produced as described in Example 3.4 and the binding experiments at the cell level were performed using CHOK1/hCD200R1a and CHOK1-cynoCD200R1a.
(§2) Briefly, CHOK1/hCD200R1a cells and CHOK1-cynoCD200R1a cells were digested, and collected, and then were resuspended in PBS containing 2% BSA, respectively. The cell density was adjusted to 1×10⁶ cells/mL. The cells were seeded in a 96-well V-bottom plate (Corning, #3894) at 100 μL/well, followed by the addition of test antibodies and reference antibodies in a series diluted concentration, each at 100 μL/well. The cells were incubated away from light at 4° C. for 1 h. Thereafter, the cells in each well were rinsed twice with 100 μL of pre-cooled PBS containing 2% BSA, and centrifuged at 500 g at 4° C. for 5 min, and then the supernatant was discarded. […] Finally, the cells in each well were resuspended in 200 μL of pre-cooled PBS containing 2% BSA, and the fluorescence signal values were read using a BD CantoII flow cytometer.
In general terms: In flow cytometry, cells or beads pass a laser one at a time.

For test [2], the target named is T2, Cynomolgus macaques CD200R1 isoform a on CHOK1 cells (CHOK1/cynoCD200R1a) (Cynomolgus macaques).
T2 chain: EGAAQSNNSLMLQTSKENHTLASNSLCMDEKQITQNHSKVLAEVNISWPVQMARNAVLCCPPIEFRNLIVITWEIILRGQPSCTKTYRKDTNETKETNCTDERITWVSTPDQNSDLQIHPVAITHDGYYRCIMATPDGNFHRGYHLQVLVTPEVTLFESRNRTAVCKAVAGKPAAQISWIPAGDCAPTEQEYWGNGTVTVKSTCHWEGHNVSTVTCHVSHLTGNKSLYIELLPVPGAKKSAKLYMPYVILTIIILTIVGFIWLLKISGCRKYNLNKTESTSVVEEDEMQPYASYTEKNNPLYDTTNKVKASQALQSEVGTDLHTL
Kind of test: flow cytometry on CHOK1/cynoCD200R1a cells. The protocol: as §1, §2

Test [3] concerns the target T3, CD200 (human CD200 on CHOK1/hCD200 cells).
T3 single chain: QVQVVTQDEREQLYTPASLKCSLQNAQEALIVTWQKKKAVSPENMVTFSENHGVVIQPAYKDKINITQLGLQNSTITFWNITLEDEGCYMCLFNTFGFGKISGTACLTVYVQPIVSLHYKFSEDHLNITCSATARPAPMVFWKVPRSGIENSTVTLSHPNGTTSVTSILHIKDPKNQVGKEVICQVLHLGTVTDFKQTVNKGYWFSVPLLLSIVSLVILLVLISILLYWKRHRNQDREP
Description: cell-based or functional assay.

The target in test [4] is T3, CD200 (human CD200 on CHOK1/hCD200 …). Kind of test: cell-based or functional assay.
The target is the same in test [5]. Kind of test: cell-based or functional assay.
The target is the same in test [6]. Description: cell-based or functional assay.
Test [7] shares this target. Kind of test: cell-based or functional assay.
In test [8] the target is T1, human CD200R1 isoform a on CHOK1 cells …. Description: flow cytometry, Alexa Fluor 647-labelled antibody on CHOK1/hCD200R1a cells. The method, then:
Briefly, CHOK1/hCD200R1a cells and CHOK1-cynoCD200R1a cells were digested, and collected, and then were resuspended in PBS containing 2% BSA, respectively. The cell density was adjusted to 1×10⁶ cells/mL. The cells were seeded in a 96-well V-bottom plate (Corning, #3894) at 100 μL/well, followed by the addition of test antibodies and reference antibodies in a series diluted concentration, each at 100 μL/well. The cells were incubated away from light at 4° C. for 1 h. Thereafter, the cells in each well were rinsed twice with 100 μL of pre-cooled PBS containing 2% BSA, and centrifuged at 500 g at 4° C. for 5 min, and then the supernatant was discarded. […] The cells in each well were rinsed twice with 100 μL of pre-cooled PBS containing 2% BSA, and centrifuged at 500 g at 4° C. for 5 min, and then the supernatant was discarded. Finally, the cells in each well were resuspended in 200 μL of pre-cooled PBS containing 2% BSA, and the fluorescence signal values were read using a BD CantoII flow cytometer.
The cell density was adjusted to 1×10⁶ cells/mL.

B1: PR200526 (antibody, human IgG1, lambda, V domains shown)
VH: QVQLVQSGAEVKKPGQSLRISCKGAGYSFSTYWIGWVRQMPGKGLEWMGIIYPDDSDTRYSPSFEGQVTISVDKSITTAYLHWSSLKASDTAIYYCARLVGGAPAYWGQGTLVTVSS
VL: QSALTQPASVSGSPGQSITISCSGSSSDIGRYDYVSWYQHYPDKAPKLIIYEVKHRPSGISHRFSASKSGNTASLTISELQPGDEADYYCASYTESKTYIFGGGTKVTVLG
notes: also called IgG1; hIgG1
Regarding B1, the binding result in test [1] and in test [2] was “no binding (tested: log 2.5 nM (about 300 nM))” each time.

B2: PR002903 (antibody, human IgG2, kappa, V domains shown)
VH: QVQLQQSGSELKKPGASVKISCKASGYSFTDYIILWVRQNPGKGLEWIGHIDPYYGSSNYNLKFKGRVTITADQSTTTAYMELSSLRSEDTAVYYCGRSKRDYFDYWGQGTTLTVSS
VL: DIQMTQSPSSLSASIGDRVTITCKASQDINSYLSWFQQKPGKAPKLLIYRANRLVDGVPSRFSGSGSGTDYTLTISSLQPEDFAVYYCLQYDEFPYTFGGGTKLEIKR
B2: the “IC50 of the inhibition of CD200-induced PathHunter Jurkat CD200R1a luminescence (CHOK1/hCD200 cells as CD200 source); head without unit, x axis Log [Ab] (nM)” value was 4.18 nM in test [3] and 11.9 nM in test [4]. Moreover, the results for the “IC50 of the inhibition of CD200-induced PathHunter Jurkat CD200R1a luminescence (CHOK1/hCD200 cells as CD200 source)” value in test [5], in test [6] and in test [7] were 2.4 nM, 3.4 nM and 4.01 nM, respectively.

B3: PR200691 (antibody, human IgG4 S228P, kappa, F234A L235A, V domains shown)
VH: QVQLVESGGGVVQPGRSLRLSCAASGFTFSRYGMHWVRQAPGKGLEWVAVIPYDGSNKYYADSVKGRFTISRDISKNTLYLQMNSLRAEDTAVYYCARRGYYDSSGYYYFYYGMDVWGQGTTVTVSS
VL: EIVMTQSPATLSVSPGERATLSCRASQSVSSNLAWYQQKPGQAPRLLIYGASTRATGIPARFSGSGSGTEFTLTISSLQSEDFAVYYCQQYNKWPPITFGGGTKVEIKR
In the case of B3, the binding result in test [8] is “binds”.
